This passage reports binding result and Kd results from US20110142851A1 (EMERGENT PRODUCT DEVELOPMENT SEATTLE, published 2011).

The target in one assay is T1, recombinant human TNF-α (human, UniProt P01375 77-233).
T1 construct: also called rhTNFα
Description: sandwich ELISA, HIL-6 coated, Xceptor, then TNF-α. As for the experimental part: The plate was covered, and incubated overnight at 4° C. […] The absorbance of each well was read at 450 nm.
On the technique in general: In an ELISA, binding on a coated surface is turned into a signal by an enzyme label.

For another assay, the target named is T2, IL6:sIL6R complex (human, UniProt P05231 30-212; P08887 20-358).
T2 construct: Non-covalent complex made by mixing 50 nM of each; about 30 nM complex estimated
Description: SPR Biacore, SMIP captured by anti-human Fc, complex injected. The protocol:
(§1) In every cycle, three different HIL6 binders were captured on flow cells 2, 3 and 4, while flow cell 1 was used as the reference cell. For each cycle, a single concentration of a single HIL6-related molecule was injected for 150 seconds at 35 microliters per minute, and then allowed to dissociate for 300 seconds. At the end of the cycle, the surface was regenerated gently using 3M MgCl₂, which dissociates protein bound to anti-hFc capture antibody. Multiple cycles were performed to study binding of monomeric or dimeric HIL6 at different concentrations, in the range of 0-100 nM, for each set of three HIL6 binders captured. […] The experiment was performed at 25° C. Signal associated with binding to the reference cell was used to subtract for bulk refractive changes and blank (buffer-only) injections were used to correct for drift and system noise. The kinetic parameters and affinities were determined using BIAevaluation software. Anti-HIL6 scFv molecules were analyzed in the reverse orientation using a dimeric human HIL6/mouse IgG Fc fusion protein captured by an immobilized rabbit polyclonal anti-mouse IgG Fc antibody on the surface and injecting different concentrations of scFv over the surface. For the HIL6 components IL6 (eBioscience, catalog no. 14-8069) and sIL6R, a single 100 nM injection was performed to obtain a qualitative assessment of binding.
In general terms: In SPR one partner is held on a chip, and binding of the other changes the refractive index at the surface.

In assay [1] the target is T3, recombinant human IL6 (human, UniProt P05231 30-212).
T3 construct: also called rhIL6; IL6 monomer
Description: SPR Biacore T100, binder captured by anti-human Fc. As for the experimental part: (§2) Binding affinities and kinetic rate constants of interaction of hyper-IL6 (HIL6; monomer or dimer), and its components IL6 and sIL6R, with different anti-HIL6 binding domains in scFv, SMIP, Xceptor and reverse Xceptor formats were determined using a Biacore® T100 instrument (GE Healthcare, Piscataway, N.J.).
as §1, with “Anti-HIL6 SMIPS, Xceptors, and reverse Xceptors were captured by a monoclonal mouse anti-human Fc, which was covalently conjugated to a carboxylmethyl dextran (CM4) surface via amines using N-ethyl-N′-(3-dimethylaminopropyl)-carbodiimide hydrochloride and N-hydroxysuccinimide. The unoccupied sites of the activated surface were blocked by ethanolamine. […] In” for “In”

In the next assay the target is T4, hu HIL6 AFH monomer (human).
T4 chain: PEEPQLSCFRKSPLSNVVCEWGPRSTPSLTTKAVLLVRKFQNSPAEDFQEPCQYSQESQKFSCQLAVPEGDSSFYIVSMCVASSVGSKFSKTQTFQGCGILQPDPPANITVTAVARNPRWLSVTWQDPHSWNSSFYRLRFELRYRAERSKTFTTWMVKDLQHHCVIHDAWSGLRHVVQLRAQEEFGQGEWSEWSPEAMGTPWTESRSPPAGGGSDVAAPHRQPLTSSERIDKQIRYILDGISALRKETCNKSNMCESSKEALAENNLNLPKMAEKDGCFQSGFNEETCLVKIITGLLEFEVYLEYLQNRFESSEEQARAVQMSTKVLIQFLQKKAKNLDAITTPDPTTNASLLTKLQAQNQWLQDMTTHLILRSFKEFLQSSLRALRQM
Put plainly: SPR Biacore T100, binder captured by anti-human Fc. The protocol:
as §2
as §1, with “Anti-HIL6 SMIPS, Xceptors, and reverse Xceptors were captured by a monoclonal mouse anti-human Fc, which was covalently conjugated to a carboxylmethyl dextran (CM4) surface via amines using N-ethyl-N′-(3-dimethylaminopropyl)-carbodiimide hydrochloride and N-hydroxysuccinimide. The unoccupied sites of the activated surface were blocked by ethanolamine. […] In” for “In”

Assay [2] concerns the target T5, hu HIL6 Fc dimer (dimeric human HIL6/mouse IgG Fc fusion protein) (human).
T5 construct: also called human hyper-IL6 (IL6R-IL6-mIgG); dimeric HIL6
T5 chain: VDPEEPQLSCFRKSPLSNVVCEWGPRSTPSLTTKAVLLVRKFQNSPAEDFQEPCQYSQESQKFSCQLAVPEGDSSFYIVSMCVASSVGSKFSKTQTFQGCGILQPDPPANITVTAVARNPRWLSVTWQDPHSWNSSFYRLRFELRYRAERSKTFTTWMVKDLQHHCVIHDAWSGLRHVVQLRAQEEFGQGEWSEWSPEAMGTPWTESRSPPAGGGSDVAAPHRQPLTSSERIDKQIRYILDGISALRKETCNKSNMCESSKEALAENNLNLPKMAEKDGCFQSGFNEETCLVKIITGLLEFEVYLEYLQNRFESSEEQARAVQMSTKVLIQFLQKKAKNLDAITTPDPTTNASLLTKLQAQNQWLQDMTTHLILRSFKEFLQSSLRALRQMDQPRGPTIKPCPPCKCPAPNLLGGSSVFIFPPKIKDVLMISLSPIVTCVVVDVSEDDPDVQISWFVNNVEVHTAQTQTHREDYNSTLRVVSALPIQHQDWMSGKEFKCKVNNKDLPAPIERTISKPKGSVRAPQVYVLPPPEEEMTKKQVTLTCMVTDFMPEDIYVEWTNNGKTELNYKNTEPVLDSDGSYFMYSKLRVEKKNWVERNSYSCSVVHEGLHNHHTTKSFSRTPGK
Description: SPR Biacore T100, binder captured by anti-human Fc. The protocol:
as §2
as §1, with “Anti-HIL6 SMIPS, Xceptors, and reverse Xceptors were captured by a monoclonal mouse anti-human Fc, which was covalently conjugated to a carboxylmethyl dextran (CM4) surface via amines using N-ethyl-N′-(3-dimethylaminopropyl)-carbodiimide hydrochloride and N-hydroxysuccinimide. The unoccupied sites of the activated surface were blocked by ethanolamine. […] In” for “In”

The target of assay [3] is T3, recombinant human IL6. Put plainly: SPR Biacore T100, binder captured by anti-human Fc. The source holds these as a separate data set.
In another assay the target is T6, sIL6R Fc dimer (UniProt P08887 20-358, limits assumed).
T6 construct: not shown: Fc
T6 sequence (looked up): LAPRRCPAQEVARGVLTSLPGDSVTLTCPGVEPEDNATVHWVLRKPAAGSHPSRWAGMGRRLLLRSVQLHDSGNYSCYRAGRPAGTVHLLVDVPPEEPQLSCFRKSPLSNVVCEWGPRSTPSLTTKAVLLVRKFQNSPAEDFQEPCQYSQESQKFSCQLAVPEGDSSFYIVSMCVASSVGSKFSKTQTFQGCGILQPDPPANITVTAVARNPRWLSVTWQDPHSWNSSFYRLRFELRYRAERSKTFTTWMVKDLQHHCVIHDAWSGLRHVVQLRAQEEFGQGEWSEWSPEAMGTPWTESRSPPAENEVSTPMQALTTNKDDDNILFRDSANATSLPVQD
Put plainly: SPR Biacore T100, binder captured by anti-human Fc. As for the experimental part: as §2
as §1, with “Anti-HIL6 SMIPS, Xceptors, and reverse Xceptors were captured by a monoclonal mouse anti-human Fc, which was covalently conjugated to a carboxylmethyl dextran (CM4) surface via amines using N-ethyl-N′-(3-dimethylaminopropyl)-carbodiimide hydrochloride and N-hydroxysuccinimide. The unoccupied sites of the activated surface were blocked by ethanolamine. […] In” for “In”

T1 sequence (P01375 77-233 limits assumed): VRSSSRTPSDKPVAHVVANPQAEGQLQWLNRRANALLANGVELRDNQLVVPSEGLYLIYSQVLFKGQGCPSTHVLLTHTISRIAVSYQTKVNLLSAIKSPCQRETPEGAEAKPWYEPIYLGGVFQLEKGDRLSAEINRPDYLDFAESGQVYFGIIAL

B1: TRU(XT6)-1006 (Fc fusion)
chain: LPAQVAFTPYAPEPGSTCRLREYYDQTAQMCCSKCSPGQHAKVFCTKTSDTVCDSCEDSTYTQLWNWVPECLSCGSRCSSDQVETQACTREQNRICTCRPGWYCALSKQEGCRLCAPLRKCRPGFGVARPGTETSDVVCKPCAPGTFSNTTSSTDICRPHQICNVVAIPGNASMDAVCTSTSPTRSMAPGAVHLPQPVSTRSQHTQPTPEPSTAPSTSFLLPMGPSPPAEGSTGDTGEPKSSDKTHTCPPCPAPEAAGAPSVFLFPPKPKDTLMISRTPEVTCVVVDVSHEDPEVKFNWYVDGVEVHNAKTKPREEQYNSTYRVVSVLTVLHQDWLNGKAYACAVSNKALPAPIEKTISKAKGQPREPQVYTLPPSRDELTKNQVSLTCLVKGFYPSDIAVEWESNGQPENNYKTTPPVLDSDGSFFLYSKLTVDKSRWQQGNVFSCSVMHEALHNHYTQKSLSLSPGQRHNNSSLNTRTQKARHSPNSEVQLLESGGGLVQPGGSLRLSCAASGFTFSQYNMIWVRQAPGKGLEWVSWISSSGGTEYADSVKGRFTISRDNSKNTLYLQMNSLRAEDTAVYYCAKDRGYGSGSYGAYDAFDIWGQGTMVTVSSGGGGSGGGGSGGGGSQDIQMTQSPSSLSASVGDRVTITCQTSQSIDRYLNWYQQKAGEAPKLLIYAASSLQSGVPSRFSGSGSGTDFTLTISSLQPEDFASYYCQQSYRTPRTFGQGTKVEIK
notes: Xceptor, TNFRSF1B ectodomain N-terminal, anti-IL6xR domain C-terminal
Regarding B1, the binding result in the assay with recombinant human TNF-α is listed as “binds”.

B2: TRU(S6)-1002 (Fc fusion)
chain: EVQLLESGGGLVQPGGSLRLSCAASGFTFSFYQMHWVRQAPGKGLEWVSGIYPSGGYTKYADSVKGRFTISRDNSKNTLYLQMNSLRAEDTAVYYCARDLGYGSSWYYFDYWGQGTLVTVSSGGGGSGGGGSGGGGSQSALTQPASVSGSPGQSITISCSGTDSDVGGYNHVSWYQQHPGKAPKLIIYDVDHRPSGISNRFSGSKSGNTASLTISGLQAEDEADYYCSSYRSGSTYVFGTGTKVTVLTGEPKSSDKTHTCPPCPAPEAAGAPSVFLFPPKPKDTLMISRTPEVTCVVVDVSHEDPEVKFNWYVDGVEVHNAKTKPREEQYNSTYRVVSVLTVLHQDWLNGKAYACAVSNKALPAPIEKTISKAKGQPREPQVYTLPPSRDELTKNQVSLTCLVKGFYPSDIAVEWESNGQPENNYKTTPPVLDSDGSFFLYSKLTVDKSRWQQGNVFSCSVMHEALHNHYTQKSLSLSPGK
notes: SMIP (scFv - linker - CH2CH3); also called S6-A2
Usually Kd stands for a measure of binding affinity in units of concentration. Regarding B2, the binding result is “binds” in the assay with IL6:sIL6R complex and “no binding (tested: 100 nM)” in the assay with recombinant human IL6 [1]. Besides, the values for the Kd (with hu HIL6 AFH monomer; in assay [2]) were 2 nM and 1.3 nM, respectively.

B3: TRU(S6)-1019 (Fc fusion)
chain: EVQLLESGGGLVQPGGSLRLSCAASGFTFSWYLMHWVRQAPGKGLEWVSGIWPSGGHTLYADSVKGRFTISRDNSKNTLYLQMNSLRAEDTAVYYCAREPLLWFGELSYNWFDPWGQGTLVTVSSGGGGSGGGGSGGGGSQDIQMTQSPSSVSASVGDRVTITCRASQGISSWLAWYQQKPGKAPKLLIYAASSLQSGVPSRFSGSGSGTDFTLTISSLQPEDFATYYCQQANSFPLTFGGGTKVEIKTGEPKSSDKTHTCPPCPAPEAAGAPSVFLFPPKPKDTLMISRTPEVTCVVVDVSHEDPEVKFNWYVDGVEVHNAKTKPREEQYNSTYRVVSVLTVLHQDWLNGKAYACAVSNKALPAPIEKTISKAKGQPREPQVYTLPPSRDELTKNQVSLTCLVKGFYPSDIAVEWESNGQPENNYKTTPPVLDSDGSFFLYSKLTVDKSRWQQGNVFSCSVMHEALHNHYTQKSLSLSPGK
notes: SMIP (scFv - linker - CH2CH3)
For B3, the Kd in the assay with recombinant human IL6 [3] was 0.44 nM; in the assay with hu HIL6 AFH monomer, 2 nM; in assay [2], 2.7 nM. For the same molecule, the binding result with sIL6R Fc dimer is “no binding (tested: 100 nM)”.
